{"source": "paper PMC2858642", "target": "His6-Bcl-2ΔTM G154A/G155A mutant", "test": "fluorescence polarisation", "data": [{"substance": "His6-Bcl-2ΔTM G154A/G155A mutant (domain or fragment)", "values": [{"measurement": "Kd", "value": 30, "unit": "nM"}]}]}
